Data as given in PMC5057313.

Target: Arabidopsis ferredoxin : thioredoxin reductase catalytic subunit (AtFTRc), prey in pGADT7 (Arabidopsis thaliana) (UniProt Q9SJ89)
Sequence of UniProt Q9SJ89 (Q9SJ89 whole entry): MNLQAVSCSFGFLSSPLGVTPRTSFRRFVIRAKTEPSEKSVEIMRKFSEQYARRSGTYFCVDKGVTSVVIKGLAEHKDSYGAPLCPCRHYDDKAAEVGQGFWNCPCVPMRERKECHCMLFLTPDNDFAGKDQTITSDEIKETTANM

MjTTL5 (transthyretin-like protein 5 of Meloidogyne javanica), bait in pGBKT7 (natural protein)
H2O2 consumption of wild-type Arabidopsis protein with MjTTL5 against the MjTTL5-free treatment (only 1.8-fold in the AtFTRc mutants; Fig. S16c): 2.5 fold
